Measured values taken from patent publication US20170306005A1 (NASCIENT, published 2017).

T1: mouse tenascin-C rCd4-His-FBG (rat; mouse, UniProt P05540 207-392, limits assumed)
T1 construct: domain: domains 3 and 4; C-terminal FBG fusion; biotinylated in the ELISA screen; also called Mu TNC; mouse TNC rCd4-His-FBG; not shown: 6His tag
T1 sequence (chain (part 1 of 2)): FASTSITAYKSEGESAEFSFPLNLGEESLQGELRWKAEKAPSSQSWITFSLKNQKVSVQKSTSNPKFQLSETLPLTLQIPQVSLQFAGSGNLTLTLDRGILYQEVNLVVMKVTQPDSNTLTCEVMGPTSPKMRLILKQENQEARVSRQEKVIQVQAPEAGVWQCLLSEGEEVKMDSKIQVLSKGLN
T1 sequence (chain (part 2 of 2)): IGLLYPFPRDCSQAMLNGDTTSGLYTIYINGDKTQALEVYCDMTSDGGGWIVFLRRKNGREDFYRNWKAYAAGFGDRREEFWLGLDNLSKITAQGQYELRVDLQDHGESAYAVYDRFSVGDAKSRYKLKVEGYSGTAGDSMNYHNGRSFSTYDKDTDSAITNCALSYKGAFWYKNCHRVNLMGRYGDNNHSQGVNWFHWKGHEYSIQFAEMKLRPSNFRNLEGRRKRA

T2: human tenascin-C rCd4-His-FBG (rat; human, UniProt P05540 207-392, limits assumed)
T2 construct: domain: domains 3 and 4; C-terminal FBG fusion; biotinylated in the ELISA and HTRF screens; also called Hu TNC; human TNC rCd4-His-FBG; not shown: 6His tag
T2 sequence (chain (part 1 of 2)): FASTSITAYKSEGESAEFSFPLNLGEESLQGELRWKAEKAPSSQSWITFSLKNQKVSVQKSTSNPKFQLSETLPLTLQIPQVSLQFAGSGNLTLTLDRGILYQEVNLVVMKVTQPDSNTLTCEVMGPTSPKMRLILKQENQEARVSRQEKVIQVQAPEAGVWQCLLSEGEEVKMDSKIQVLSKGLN
T2 sequence (chain (part 2 of 2)): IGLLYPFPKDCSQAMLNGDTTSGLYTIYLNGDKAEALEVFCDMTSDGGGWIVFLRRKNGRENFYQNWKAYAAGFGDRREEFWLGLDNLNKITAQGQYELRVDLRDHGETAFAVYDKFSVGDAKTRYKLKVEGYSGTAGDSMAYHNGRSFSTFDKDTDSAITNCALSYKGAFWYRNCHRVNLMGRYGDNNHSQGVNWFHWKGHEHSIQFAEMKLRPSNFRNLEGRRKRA


Key:
[1] = target: T1, mouse tenascin-C rCd4-His-FBG; test: anti-FLAG capture ELISA, scFv supernatant
[2] = target: T2, human tenascin-C rCd4-His-FBG; test: HTRF competition; competitor d2-labelled B12 IgG
Experimental: All samples and reagents were prepared in assay buffer (50 mM NaPO₄, 0.1% BSA, 0.4 M KF, pH 7.0) at 4× the stated concentration. 5 μl of each reagent was subsequently added to low volume 384-well assay plates (Greiner, 784075) to give a final reaction volume of 20 μl. IgG antibodies were labelled using the d2 labelling kit (CisBio, 62D2DPEA) as directed by the manufacturer. Streptavidin europium cryptate (CisBio, 610SAKLA, Lot#25C) was used at a final concentration of 1.8 ng active moiety (SA) per 20 μl reaction as recommended by the manufacturer. Biotinylated rCd4-His-FBG was prepared using EZ-link Sulfo-NHS-LC-Biotin reagent (Thermo Scientific, 21327) the extent of biotinylation was quantified using biotinylation fluorescence quantitation kit (Thermo Scientific, 46610). Where appropriate, supernatants containing scFv (prepared as described above for ELISA assays) were added to the 384-well assay plate at a final dilution of 1/20 (i.e. 1/5 dilution in assay buffer followed by addition of 5 μl diluted sample to the 20 μl FRET assay). […] Samples were incubated for approximately 1 h at room temperature and the FRET signal was determined using a BMG Pherastar instrument: excitation=320 nm; emission=620 nm and 665 nm; integration start time=60 μs; integration time=500 μs; 100 flashes per well. For competition assays containing culture supernatant, biotinylated rCd4-His-FBG antigen was pre-incubated with streptavidin europium cryptate for 45 min prior to addition of reagents to the assay plate. All FRET signals are presented as ΔR, where R=(E665/E620×104) and ΔR=(Rsample−Rbackground fluorescence).

Binder | fold improvement in binding over parent [1] [fold] | % inhibition of FRET signal [2] [%]
162_02_F3 scFv (scFv, V domains shown, not shown: small tags and cut ends, E. coli supernatant scFv) VH: EVRLVQSGAEVKKPGASVKVSCKVSGYTLTELSMHWVRQAPGKGLEWMGGFDPEDGETIYAQKFQGRVTMTEDTSTDTAYMELSSLRSEDTAVYYCATAQKETYALTYWGQGTLVTVSS VL: DIQMTQSPASLPTSVGDRVTITCRASQYIQGFLNWYQQKPGKAPRLLIYAASTLQDGVPSRFSGSGYGTDFTLTISSLQPEDFATYYCQNQYRGPWTFGQGTKVEIK | ≥ 10 | ≥ 83
162_02_C6 scFv (scFv, V domains shown, not shown: small tags and cut ends, E. coli supernatant scFv) VH: EVRLVQSGAEVKKPGASVKVSCKVSGYTLTELSMHWVRQAPGKGLEWMGGFDPEDGETIYAQKFQGRVTMTEDTSTDTAYMELSSLRSEDTAVYYCATAQKETYALTYWGQGTLVTVSS VL: DIQMTQSPASLPTSVGDRVTITCRASQYIQGFLNWYQQKPGKAPRLLIYAASTLQDGVPSRFSGSGYGTDFTLTISSLQPEDFATYYCQNQYAGPWTFGQGTKVEIK | ≥ 10 | ≥ 83
161_01_A12 scFv (scFv, V domains shown, not shown: small tags and cut ends, E. coli supernatant scFv) VH: EVRLVQSGAEVKKPGASVKVSCKVSGYTLTELSMHWVRQAPGKGLEWMGGFDPEDGETIYAQKFQGRVTMTEDTSTDTAYMELSSLRSEDTAVYYCATAQPTALANTYWGQGTLVTVSS VL: DIQMTQSPASLPTSVGDRVTITCRASQYIQGFLNWYQQKPGKAPRLLIYAASTLQDGVPSRFSGSGYGTDFTLTISSLQPEDFATYYCQQSYSTPWTFGQGTKVEIK | ≥ 10 | ≥ 90
162_02_C1 scFv (scFv, V domains shown, not shown: small tags and cut ends, E. coli supernatant scFv) VH: EVRLVQSGAEVKKPGASVKVSCKVSGYTLTELSMHWVRQAPGKGLEWMGGFDPEDGETIYAQKFQGRVTMTEDTSTDTAYMELSSLRSEDTAVYYCATAQKETYALTYWGQGTLVTVSS VL: DIQMTQSPASLPTSVGDRVTITCRASQYIQGFLNWYQQKPGKAPRLLIYAASTLQDGVPSRFSGSGYGTDFTLTISSLQPEDFATYYCLHHYRAPWTFGQGTKVEIK | ≥ 10 | ≥ 83
160_01_H4 scFv (scFv, V domains shown, not shown: small tags and cut ends, E. coli supernatant scFv) VH: EVRLVQSGAEVKKPGASVKVSCKVSGYTLTELSMHWVRQAPGKGLEWMGGFDPEDGETIYAQKFQGRVTMTEDTSTDTAYMELSSLRSEDTAVYYCATGRFVWEALTYWGQGTLVTVSS VL: DIQMTQSPASLPTSVGDRVTITCRASQYIQGFLNWYQQKPGKAPRLLIYAASTLQDGVPSRFSGSGYGTDFTLTISSLQPEDFATYYCQQSYSTPWTFGQGTKVEIK | ≥ 10 | ≥ 90
161_01_H10 scFv (scFv, V domains shown, not shown: small tags and cut ends, E. coli supernatant scFv) VH: EVRLVQSGAEVKKPGASVKVSCKVSGYTLTELSMHWVRQAPGKGLEWMGGFDPEDGETIYAQKFQGRVTMTEDTSTDTAYMELSSLRSEDTAVYYCATAQPVWAPGTYWGQGTLVTVSS VL: DIQMTQSPASLPTSVGDRVTITCRASQYIQGFLNWYQQKPGKAPRLLIYAASTLQDGVPSRFSGSGYGTDFTLTISSLQPEDFATYYCQQSYSTPWTFGQGTKVEIK | ≥ 10 | ≥ 90
162_02_F4 scFv (scFv, V domains shown, not shown: small tags and cut ends, E. coli supernatant scFv) VH: EVRLVQSGAEVKKPGASVKVSCKVSGYTLTELSMHWVRQAPGKGLEWMGGFDPEDGETIYAQKFQGRVTMTEDTSTDTAYMELSSLRSEDTAVYYCATAQKETYALTYWGQGTLVTVSS VL: DIQMTQSPASLPTSVGDRVTITCRASQYIQGFLNWYQQKPGKAPRLLIYAASTLQDGVPSRFSGSGYGTDFTLTISSLQPEDFATYYCMHHYRSPWTFGQGTKVEIK | ≥ 10 | ≥ 83
162_02_C2 scFv (scFv, V domains shown, not shown: small tags and cut ends, E. coli supernatant scFv) VH: EVRLVQSGAEVKKPGASVKVSCKVSGYTLTELSMHWVRQAPGKGLEWMGGFDPEDGETIYAQKFQGRVTMTEDTSTDTAYMELSSLRSEDTAVYYCATAQKETYALTYWGQGTLVTVSS VL: DIQMTQSPASLPTSVGDRVTITCRASQYIQGFLNWYQQKPGKAPRLLIYAASTLQDGVPSRFSGSGYGTDFTLTISSLQPEDFATYYCMHHYRAPWTFGQGTKVEIK | ≥ 10 | ≥ 83
162_02_D3 scFv (scFv, V domains shown, not shown: small tags and cut ends, E. coli supernatant scFv) VH: EVRLVQSGAEVKKPGASVKVSCKVSGYTLTELSMHWVRQAPGKGLEWMGGFDPEDGETIYAQKFQGRVTMTEDTSTDTAYMELSSLRSEDTAVYYCATAQIHPLGLTYWGQGTLVTVSS VL: DIQMTQSPASLPTSVGDRVTITCRASQYIQGFLNWYQQKPGKAPRLLIYAASTLQDGVPSRFSGSGYGTDFTLTISSLQPEDFATYYCQQSYSTPWTFGQGTKVEIK | ≥ 10 | ≥ 90

More lines, now with the values ahead:

fold improvement in binding over parent [1] [fold] | % inhibition of FRET signal [2] [%] | Binder
≥ 10 | ≥ 90 | 160_01_G2 scFv (scFv, V domains shown, not shown: small tags and cut ends, E. coli supernatant scFv) VH: EVRLVQSGAEVKKPGASVKVSCKVSGYTLTELSMHWVRQAPGKGLEWMGGFDPEDGETIYAQKFQGRVTMTEDTSTDTAYMELSSLRSEDTAVYYCATYTLDNMALTYWGQGTLVTVSS VL: DIQMTQSPASLPTSVGDRVTITCRASQYIQGFLNWYQQKPGKAPRLLIYAASTLQDGVPSRFSGSGYGTDFTLTISSLQPEDFATYYCQQSYSTPWTFGQGTKVEIK
≥ 10 | ≥ 90 | 161_01_F6 scFv (scFv, V domains shown, not shown: small tags and cut ends, E. coli supernatant scFv; also called 160_01_F6) VH: EVRLVQSGAEVKKPGASVKVSCKVSGYTLTELSMHWVRQAPGKGLEWMGGFDPEDGETIYAQKFQGRVTMTEDTSTDTAYMELSSLRSEDTAVYYCATAQKENIANRHWGQGTLVTVSS VL: DIQMTQSPASLPTSVGDRVTITCRASQYIQGFLNWYQQKPGKAPRLLIYAASTLQDGVPSRFSGSGYGTDFTLTISSLQPEDFATYYCQQSYSTPWTFGQGTKVEIK
≥ 10 | ≥ 90 | 161_01_C11 scFv (scFv, V domains shown, not shown: small tags and cut ends, E. coli supernatant scFv) VH: EVRLVQSGAEVKKPGASVKVSCKVSGYTLTELSMHWVRQAPGKGLEWMGGFDPEDGETIYAQKFQGRVTMTEDTSTDTAYMELSSLRSEDTAVYYCATAQKEWLPDVTWGQGTLVTVSS VL: DIQMTQSPASLPTSVGDRVTITCRASQYIQGFLNWYQQKPGKAPRLLIYAASTLQDGVPSRFSGSGYGTDFTLTISSLQPEDFATYYCQQSYSTPWTFGQGTKVEIK
≥ 10 | ≥ 90 | 160_01_F1 scFv (scFv, V domains shown, not shown: small tags and cut ends, E. coli supernatant scFv) VH: EVRLVQSGAEVKKPGASVKVSCKVSGYTLTELSMHWVRQAPGKGLEWMGGFDPEDGETIYAQKFQGRVTMTEDTSTDTAYMELSSLRSEDTAVYYCATAQSPWSGMTYWGQGTLVTVSS VL: DIQMTQSPASLPTSVGDRVTITCRASQYIQGFLNWYQQKPGKAPRLLIYAASTLQDGVPSRFSGSGYGTDFTLTISSLQPEDFATYYCQQSYSTPWTFGQGTKVEIK
≥ 10 | ≥ 90 | 160_01_A4 scFv (scFv, V domains shown, not shown: small tags and cut ends, E. coli supernatant scFv) VH: EVRLVQSGAEVKKPGASVKVSCKVSGYTLTELSMHWVRQAPGKGLEWMGGFDPEDGETIYAQKFQGRVTMTEDTSTDTAYMELSSLRSEDTAVYYCATAQKETLGNAIWGQGTLVTVSS VL: DIQMTQSPASLPTSVGDRVTITCRASQYIQGFLNWYQQKPGKAPRLLIYAASTLQDGVPSRFSGSGYGTDFTLTISSLQPEDFATYYCQQSYSTPWTFGQGTKVEIK
≥ 10 | ≥ 90 | 161_01_C09 scFv (scFv, V domains shown, not shown: small tags and cut ends, E. coli supernatant scFv) VH: EVRLVQSGAEVKKPGASVKVSCKVSGYTLTELSMHWVRQAPGKGLEWMGGFDPEDGETIYAQKFQGRVTMTEDTSTDTAYMELSSLRSEDTAVYYCATAQLPYLAQTYWGQGTLVTVSS VL: DIQMTQSPASLPTSVGDRVTITCRASQYIQGFLNWYQQKPGKAPRLLIYAASTLQDGVPSRFSGSGYGTDFTLTISSLQPEDFATYYCQQSYSTPWTFGQGTKVEIK
